First the molecules themselves.
B1: Arabidopsis thaliana 1-deoxy-D-xylulose 5-phosphate synthase (59-717), C-terminal hexahistidine-FLAG tandem tag (enzyme, UniProt Q38854 59-717, looked up)
chain: ASLAEKGEYYSNRPPTPLLDTINYPIHMKNLSVKELKQLSDELRSDVIFNVSKTGGHLGSSLGVVELTVALHYIFNTPQDKILWDVGHQSYPHKILTGRRGKMPTMRQTNGLSGFTKRGESEHDCFGTGHSSTTISAGLGMAVGRDLKGKNNNVVAVIGDGAMTAGQAYEAMNNAGYLDSDMIVILNDNKQVSLPTATLDGPSPPVGALSSALSRLQSNPALRELREVAKGMTKQIGGPMHQLAAKVDEYARGMISGTGSSLFEELGLYYIGPVDGHNIDDLVAILKEVKSTRTTGPVLIHVVTEKGRGYPYAERADDKYHGVVKFDPATGRQFKTTNKTQSYTTYFAEALVAEAEVDKDVVAIHAAMGGGTGLNLFQRRFPTRCFDVGIAEQHAVTFAAGLACEGLKPFCAIYSSFMQRAYDQVVHDVDLQKLPVRFAMDRAGLVGADGPTHCGAFDVTFMACLPNMIVMAPSDEADLFNMVATAVAIDDRPSCFRYPRGNGIGVALPPGNKGVPIEIGKGRILKEGERVALLGYGSAVQSCLGAAVMLEERGLNVTVADARFCKPLDRALIRSLAKSHEVLITVEEGSIGGFGSHVVQFLALDGLLDGKLKWRPMVLPDRYIDHGAPADQLAEAGLMPSHIAATALNLIGAPREALF
notes: 1-deoxy-D-xylulose 5-phosphate synthase (DXPS), Arabidopsis thaliana, UniProt Q38854, residues 59-717, without the transit peptide; also called DXPS; DXPS-His-FLAG; source: E. coli BL21 Rosetta 2 (DE3), co-expressed with His-Hsp21 at 37 °C, purified (HisTrap, anti-FLAG M2); not shown: His6, C-terminal, kept; FLAG, C-terminal, kept

Data set [1] deals with the molecule itself. Put plainly: cryo-EM structure; His-Hsp21 and DXPS-His-FLAG co-expressed in E. coli at 37 °C, purified together (HisTrap, anti-FLAG), 0.7 mg/mL; 3D classification gave free DXPS (4.0 Å) and Hsp21-DXPS (3.7 Å).
Data set [2] concerns the target B1. The description is as above. To be noted: both partners purified.
Data set [3] concerns the molecule itself. Put plainly: cryo-EM structure; purified Hsp21 without substrate, 1 mg/mL; tetrahedral symmetry imposed, 4.6 Å.

Turning to B1, the “stoichiometry N” value in data set [1] was 2.

B2: Arabidopsis thaliana plastid small heat shock protein Hsp21 (44-227), N-terminal hexahistidine tag (natural protein)
chain: not shown
notes: Hsp21, Arabidopsis thaliana, UniProt P31170, residues 44-227, without the transit peptide; Alone it is a dodecamer (twelve identical subunits, tetrahedral); In the complex with DXPS it is a single monomer; also called His-Hsp21; Hsp21 dodecamer; source: E. coli BL21 Rosetta 2 (DE3), co-expressed with DXPS-His-FLAG at 37 °C, complex purified (HisTrap, anti-FLAG M2); E. coli BL21 Rosetta (DE3), …
For the molecule B2, the “stoichiometry N” value in data set [2] came to 1; in data set [3], 12.

As usually defined, the stoichiometry N is a count of units in the complex or per binding partner.

Source of the values: PMC8140096, “Structural basis of substrate recognition and thermal protection by a small heat shock protein” (Nature Communications, 2021).
